The values below come from publication PMC6344864 (Nucleic Acids Research, 2018).

The target in series [1] is Replication protein A (RPA), Saccharomyces cerevisiae (Saccharomyces cerevisiae, UniProt P22336 1-621; P26754 1-273; P26755 1-122). The series can be described thus: pull-down.
The next series deals with T1, His6-tagged Dmc1 (Saccharomyces cerevisiae, UniProt P25453 1-334).
T1 sequence (looked up): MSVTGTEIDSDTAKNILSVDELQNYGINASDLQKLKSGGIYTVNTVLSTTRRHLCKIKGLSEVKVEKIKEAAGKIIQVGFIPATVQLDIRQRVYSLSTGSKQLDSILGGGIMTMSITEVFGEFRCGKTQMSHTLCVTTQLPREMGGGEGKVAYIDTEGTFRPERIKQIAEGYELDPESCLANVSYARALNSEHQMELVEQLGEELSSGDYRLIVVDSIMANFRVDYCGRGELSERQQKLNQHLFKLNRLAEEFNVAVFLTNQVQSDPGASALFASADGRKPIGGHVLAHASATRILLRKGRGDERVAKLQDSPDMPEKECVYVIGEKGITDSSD
The series can be described thus: co-IP.

In another series the target is T2, Rdh54/Tid1 (Saccharomyces cerevisiae, UniProt P38086 1-958).
T2 sequence: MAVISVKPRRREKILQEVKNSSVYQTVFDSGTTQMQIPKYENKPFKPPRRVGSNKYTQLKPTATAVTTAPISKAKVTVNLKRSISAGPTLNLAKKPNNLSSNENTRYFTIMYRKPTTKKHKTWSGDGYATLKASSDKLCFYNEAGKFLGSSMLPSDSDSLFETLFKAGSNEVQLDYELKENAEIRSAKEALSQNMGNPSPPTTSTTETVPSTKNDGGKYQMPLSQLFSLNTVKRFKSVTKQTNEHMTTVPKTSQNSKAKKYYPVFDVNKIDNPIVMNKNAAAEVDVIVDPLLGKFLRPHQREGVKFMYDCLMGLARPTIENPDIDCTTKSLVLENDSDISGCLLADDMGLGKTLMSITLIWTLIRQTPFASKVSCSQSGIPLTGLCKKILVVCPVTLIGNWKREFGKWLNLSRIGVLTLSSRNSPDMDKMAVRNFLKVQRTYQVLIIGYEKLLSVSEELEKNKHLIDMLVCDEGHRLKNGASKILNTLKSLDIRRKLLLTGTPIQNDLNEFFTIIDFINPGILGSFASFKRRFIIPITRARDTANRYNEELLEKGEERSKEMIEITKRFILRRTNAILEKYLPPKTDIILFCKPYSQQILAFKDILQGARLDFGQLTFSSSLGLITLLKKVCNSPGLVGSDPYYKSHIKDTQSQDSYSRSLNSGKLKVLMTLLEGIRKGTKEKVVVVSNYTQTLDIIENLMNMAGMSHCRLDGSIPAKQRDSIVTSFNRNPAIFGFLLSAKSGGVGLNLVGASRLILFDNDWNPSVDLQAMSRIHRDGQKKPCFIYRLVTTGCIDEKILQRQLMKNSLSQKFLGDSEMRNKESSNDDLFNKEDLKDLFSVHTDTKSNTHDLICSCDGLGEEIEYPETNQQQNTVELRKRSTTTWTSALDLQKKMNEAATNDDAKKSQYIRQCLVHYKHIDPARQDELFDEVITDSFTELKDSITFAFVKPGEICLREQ
The series can be described thus: fluorescence polarization. A general note: Polarisation of emitted light reports the rotation of a fluorescent probe.

Sequence of Replication protein A (RPA), Saccharomyces cerevisiae (P22336 whole entry, chain 1 of 3): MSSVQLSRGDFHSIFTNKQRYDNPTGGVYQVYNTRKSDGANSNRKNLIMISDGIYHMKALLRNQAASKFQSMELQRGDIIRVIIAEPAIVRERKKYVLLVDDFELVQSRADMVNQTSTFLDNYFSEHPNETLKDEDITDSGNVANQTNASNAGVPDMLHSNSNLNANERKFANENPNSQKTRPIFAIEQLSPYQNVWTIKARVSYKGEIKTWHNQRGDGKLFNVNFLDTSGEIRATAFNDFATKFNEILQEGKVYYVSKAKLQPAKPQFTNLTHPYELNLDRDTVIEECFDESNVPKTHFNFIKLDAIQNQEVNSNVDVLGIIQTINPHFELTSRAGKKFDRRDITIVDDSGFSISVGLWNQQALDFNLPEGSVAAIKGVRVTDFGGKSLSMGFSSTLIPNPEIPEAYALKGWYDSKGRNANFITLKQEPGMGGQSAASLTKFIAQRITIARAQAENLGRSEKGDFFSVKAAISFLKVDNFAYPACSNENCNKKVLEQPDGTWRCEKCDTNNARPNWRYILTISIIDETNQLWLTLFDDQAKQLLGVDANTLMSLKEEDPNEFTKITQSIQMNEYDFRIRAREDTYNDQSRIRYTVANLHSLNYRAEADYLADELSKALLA
Sequence of Replication protein A (RPA), Saccharomyces cerevisiae (P26754 whole entry, chain 2 of 3): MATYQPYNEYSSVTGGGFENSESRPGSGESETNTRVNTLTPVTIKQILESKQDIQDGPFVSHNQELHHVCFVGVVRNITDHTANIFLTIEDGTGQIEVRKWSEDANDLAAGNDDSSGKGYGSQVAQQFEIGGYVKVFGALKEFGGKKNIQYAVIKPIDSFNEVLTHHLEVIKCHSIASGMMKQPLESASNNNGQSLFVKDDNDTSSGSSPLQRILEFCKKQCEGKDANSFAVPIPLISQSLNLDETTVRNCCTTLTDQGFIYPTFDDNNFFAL
Sequence of Replication protein A (RPA), Saccharomyces cerevisiae (P26755 whole entry, chain 3 of 3): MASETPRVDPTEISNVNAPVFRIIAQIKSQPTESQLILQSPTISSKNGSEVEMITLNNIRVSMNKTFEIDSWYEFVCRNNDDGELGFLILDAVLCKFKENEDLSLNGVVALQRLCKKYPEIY

B1: His6-tagged Mei5-Sae3 heterodimer (complex, Saccharomyces cerevisiae)
chain 1: MHNQEEWLDKDKTLVNEEENTCINHSYTKKDTNNYRVGKSGIKDLKKPTNQKEIAIKNRELTKQLTLLRQENNHLQQACKILSENKIIENRKSIEKWRTICEMELSFILNSTLIKINRMGGYKDFLEKEMEAKKRRLEYQIDNGMEDQICEIKESDDFRQLSEVEKQEWESQMNEQLKELEKKKIAELEKLNKVLHDSEGKDFGMAELCTRLKLDYSLIFPQ
chain 2: MNYLETQLNKKQKQIQEYESMNGNLIKMFEQLSKEKKNDETPKKISSTYIKELKEYNELRDAGLRLAQIIADEKQCKIKDVFEEIGYSMKD
For the molecule B1, the binding result (in series [1]; with His6-tagged Dmc1) was “binds” each time.

B2: 84-mer ssDNA (ssDNA)
DNA: GGTAGCGGTTGGGTGAGTGGTGGGGAGGGTCGGGAGGTGGCGTAGAAACATGATAGGAATGTGAATGAATGAAGTACAAGTAAA
Turning to B2, the affinity with Rdh54/Tid1, expressed as Kd, was 230 nM.

By Kd is commonly meant the free concentration of one partner at which half of the binding sites on the other are occupied at equilibrium, for simple one-to-one binding. Low values mean a tighter complex, high ones a looser complex.
